± gives the standard deviation of the averaged measurements.

In the series the test system is Saccharomyces cerevisiae. Description: protein stability index of tFT-peptide fusion (C-terminal peptide) (PSI (0-1 scale)); higher = more stable (slower turnover). Conditions: temperature: 30 C. On the procedure:
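MPS profiling in S. cerevisiae of the yeast C-terminome library: the last 12 aa of each annotated ORF are fused to the C-terminus of a sfGFP-mCherry timer, after a GGGS linker. Cells are FACS-sorted into 8 mCherry/sfGFP bins and deep-sequenced. PSI runs from 0 (unstable) to 1 (stable); wild type and das1Δ backgrounds, two technical replicates each.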

Setting [1] is: genetic background: das1 deletion.

TATSSSIILSDK [SSN2 C-terminal 12 aa]: the protein stability index runs as follows: under setting [1], 0.713 ± 0.032; (genetic background: wild type) 0.665 ± 0.045.
For TDELWEMLLDQA [MET12 C-terminal 12 aa], the protein stability index reads like this: under setting [1], 0.762 ± 0.039; (genetic background: wild type) 0.723 ± 0.072.
For the sequence TELRHKRTGGKH [ILV2 C-terminal 12 aa], the protein stability index is, setting by setting: under setting [1], 0.691 ± 0.0092; (genetic background: wild type) 0.7268 ± 0.002.
In the case of TGKDVMKGALGF [SRO7 C-terminal 12 aa], the protein stability index reads like this: under setting [1], 0.6953 ± 0.0023; (genetic background: wild type) 0.667 ± 0.024.
For the sequence TGRDMMKSAVGF [SRO77 C-terminal 12 aa], the protein stability index amounted to 0.714 ± 0.015 under setting [1] and 0.661 ± 0.016 (genetic background: wild type).
With TGTSTEAPSAAN [NCL1 C-terminal 12 aa], the protein stability index under setting [1] was 0.6661 ± 0.00092 and the protein stability index (genetic background: wild type) amounted to 0.6578 ± 0.0053.
With THQKKIAKKKHQ [YPR015C C-terminal 12 aa], the protein stability index stood at 0.741 ± 0.053 under setting [1] and 0.695 ± 0.014 (genetic background: wild type).
TIITKYEMLVRT [YOL134C C-terminal 12 aa] had a protein stability index under setting [1] of 0.52 ± 0.015 and a protein stability index (genetic background: wild type) of 0.5399 ± 0.0028.
As for TKKSSSHHRTGK [DIG1 C-terminal 12 aa], the protein stability index is, setting by setting: under setting [1], 0.697 ± 0.014; (genetic background: wild type) 0.688 ± 0.016.
Turning to TLEDEALQRNSK [JNM1 C-terminal 12 aa], the protein stability index runs as follows: under setting [1], 0.722 ± 0.0093; (genetic background: wild type) 0.686 ± 0.017.
Turning to TLNVSNISHYSL [GAL80 C-terminal 12 aa], the protein stability index was found to be 0.7033 ± 0.0016 under setting [1] and 0.704 ± 0.0075 (genetic background: wild type).
TLQSEINISVKH [ENA5 C-terminal 12 aa]: the protein stability index came to 0.671 ± 0.0081 under setting [1] and 0.6909 ± 0.0042 (genetic background: wild type).
Regarding TLTDLRDELRGL [NUP120 C-terminal 12 aa], the protein stability index is, setting by setting: under setting [1], 0.678 ± 0.018; (genetic background: wild type) 0.721 ± 0.024.
Take TLWNDNTSYPFL [PDR3 C-terminal 12 aa]: the protein stability index runs as follows: under setting [1], 0.756 ± 0.015; (genetic background: wild type) 0.7571 ± 0.0029.
TNDSFNIVALTP [PRP19 C-terminal 12 aa]: the protein stability index came to 0.68811 ± 0.00023 under setting [1] and 0.654 ± 0.017 (genetic background: wild type).
For TPENNHLKWLIK [UGX2 C-terminal 12 aa], the protein stability index was 0.716 ± 0.024 under setting [1] and 0.685 ± 0.035 (genetic background: wild type).
The corresponding values for TPKPVDTDDEED [NEW1 C-terminal 12 aa] are 0.685 ± 0.023 and 0.707 ± 0.035.
The corresponding values for TPLGQTLLDSRR [DAL1 C-terminal 12 aa] are 0.6757 ± 0.0015 and 0.67 ± 0.011.
With TPQEILQRFQKQ [EAF1 C-terminal 12 aa], the protein stability index reads like this: under setting [1], 0.6812 ± 0.0053; (genetic background: wild type) 0.732 ± 0.029.
Take TQSTVIATTSSV [NDL1 C-terminal 12 aa]: the protein stability index stood at 0.6904 ± 0.0063 under setting [1] and 0.694 ± 0.027 (genetic background: wild type).
For TRDAPRERSPTR [NPL3 C-terminal 12 aa] the same measures were 0.716 ± 0.016 and 0.65 ± 0.018.
The corresponding values for TRFFDSKYFGCD [URK1 C-terminal 12 aa] are 0.701 ± 0.0078 and 0.73 ± 0.072.
For TRSAWDRAQRRL [LCP5 C-terminal 12 aa] the same measures were 0.697 ± 0.015 and 0.674 ± 0.013.
For the sequence TSAGSNIFSTGQ [BBP1 C-terminal 12 aa], the protein stability index is 0.699 ± 0.011 under setting [1] and 0.752 ± 0.043 (genetic background: wild type).
For “TSASSNLDDSFS [YPR002C-A C-terminal 12 aa]”, the protein stability index was determined as 0.69 ± 0.019 under setting [1] and 0.6996 ± 0.002 (genetic background: wild type).
With “TSGFCSLETSAE [YER023C-A C-terminal 12 aa]”, the protein stability index by setting is: under setting [1], 0.697 ± 0.0079; (genetic background: wild type) 0.735 ± 0.057.
The corresponding values for “TSGGSIVLKGSS [YGR068W-A C-terminal 12 aa]” are 0.701 ± 0.026 and 0.6688 ± 0.0037.
Turning to TSNDLPAECVIS [EGH1 C-terminal 12 aa], the protein stability index came to 0.72 ± 0.0097 under setting [1] and 0.68843 ± 0.00034 (genetic background: wild type).
TSNNIFGSDQKY [MNN14 C-terminal 12 aa]: the protein stability index by setting is: under setting [1], 0.694 ± 0.016; (genetic background: wild type) 0.741 ± 0.037.
Take TSSTPKSPSSGS [SMY1 C-terminal 12 aa]: the protein stability index is, setting by setting: under setting [1], 0.691 ± 0.018; (genetic background: wild type) 0.67 ± 0.014.
Turning to “TSTLAVIPYPAF [YLR466C-B C-terminal 12 aa]”, the protein stability index by setting is: under setting [1], 0.7177 ± 0.0022; (genetic background: wild type) 0.755 ± 0.045.
Regarding TTLCILFLFFTW [GOS1 C-terminal 12 aa], the protein stability index reads like this: under setting [1], 0.386 ± 0.0071; (genetic background: wild type) 0.401 ± 0.014.
With TTVPIVSKKRQK [POP3 C-terminal 12 aa], the protein stability index amounted to 0.685 ± 0.033 under setting [1] and 0.699 ± 0.01 (genetic background: wild type).
Turning to TVNLIKSQLVRG [COQ9 C-terminal 12 aa], the protein stability index amounted to 0.6064 ± 0.0011 under setting [1] and 0.635 ± 0.047 (genetic background: wild type).
On to TVRALNPFMKRV [SSD1 C-terminal 12 aa], for which the protein stability index reads like this: under setting [1], 0.689 ± 0.046; (genetic background: wild type) 0.656 ± 0.039.
For the sequence TYCEKYHVPSIQ [YAE1 C-terminal 12 aa], the protein stability index is, setting by setting: under setting [1], 0.6915 ± 0.0042; (genetic background: wild type) 0.677 ± 0.04.
TYFSKQFLKKEL [LTP1 C-terminal 12 aa]: the protein stability index is 0.746 ± 0.017 under setting [1] and 0.742 ± 0.009 (genetic background: wild type).
For TYRLGEWSKISV [POP1 C-terminal 12 aa] the same measures were 0.694 ± 0.011 and 0.6913 ± 0.0047.
For the sequence VAAKIAALAGQQ [RPL5 C-terminal 12 aa], the protein stability index is 0.708 ± 0.026 under setting [1] and 0.717 ± 0.028 (genetic background: wild type).
For VAQNPVLAAVIA [KAP123 C-terminal 12 aa] the same measures were 0.455 ± 0.013 and 0.466 ± 0.015.
In the case of VARLKDESENVW [COX16 C-terminal 12 aa], the protein stability index was 0.689 ± 0.018 under setting [1] and 0.732 ± 0.041 (genetic background: wild type).
In turn, VAVASASSSASS [VPH1 C-terminal 12 aa] displayed a protein stability index under setting [1] of 0.683 ± 0.019 and a protein stability index (genetic background: wild type) of 0.682 ± 0.032.
With VDDIVSGVRKQE [CCT3 C-terminal 12 aa], the protein stability index by setting is: under setting [1], 0.691 ± 0.028; (genetic background: wild type) 0.677 ± 0.011.
Take VDDSDGDETMQI [TDA1 C-terminal 12 aa]: the protein stability index reads like this: under setting [1], 0.70725 ± 0.00053; (genetic background: wild type) 0.7369 ± 0.0011.
Regarding VEDQSIEVKKEK [YPC1 C-terminal 12 aa], the protein stability index is, setting by setting: under setting [1], 0.684 ± 0.035; (genetic background: wild type) 0.7136 ± 0.007.
The corresponding values for VEFKYPEEIFHG [TPP1 C-terminal 12 aa] are 0.712 ± 0.012 and 0.6782 ± 0.0027.
Regarding VEGGGVQYTIVS [YDL023C C-terminal 12 aa], the protein stability index stood at 0.679 ± 0.0039 under setting [1] and 0.669 ± 0.0067 (genetic background: wild type).
The corresponding values for VEVEYLLRRLEE [ARO7 C-terminal 12 aa] are 0.691 ± 0.013 and 0.6589 ± 0.0044.
For VFKMIMFIASNE [STU1 C-terminal 12 aa] the same measures were 0.581 ± 0.0076 and 0.5559 ± 0.0028.
As for “VFLIISQHSLHS [YBL113W-A C-terminal 12 aa]”, the protein stability index is, setting by setting: under setting [1], 0.6652 ± 0.0044; (genetic background: wild type) 0.646 ± 0.029.
Sequence VFTRLYSTLWSY [YDR149C C-terminal 12 aa] came in with a protein stability index under setting [1] of 0.6867 ± 0.0054 and a protein stability index (genetic background: wild type) of 0.145 ± 0.0086.
As to VIKCFTSSDMTS [NAG1 C-terminal 12 aa], the protein stability index is, setting by setting: under setting [1], 0.701 ± 0.026; (genetic background: wild type) 0.683 ± 0.053.
Consider VKDFYKRLETLK [RRM3 C-terminal 12 aa], for which the protein stability index by setting is: under setting [1], 0.6914 ± 0.0038; (genetic background: wild type) 0.7042 ± 0.0011.
For VKNVLSKVVPPV [MTC2 C-terminal 12 aa] the same measures were 0.688 ± 0.0078 and 0.669 ± 0.04.
As to VKPSQDNVDSKD [OPI1 C-terminal 12 aa], the protein stability index is, setting by setting: under setting [1], 0.687 ± 0.0096; (genetic background: wild type) 0.668 ± 0.022.
For the sequence VKQLEVSSGIKQ [HEM1 C-terminal 12 aa], the protein stability index reads like this: under setting [1], 0.6929 ± 0.0017; (genetic background: wild type) 0.675 ± 0.043.
Regarding VLAILFYPAWVE [YGR160W C-terminal 12 aa], the protein stability index amounted to 0.5 ± 0.0098 under setting [1] and 0.529 ± 0.0053 (genetic background: wild type).
On to VLDVGSVLDVTI [PSR2 C-terminal 12 aa], for which the protein stability index is, setting by setting: under setting [1], 0.718 ± 0.035; (genetic background: wild type) 0.6934 ± 0.00093.
On to VLHSIISICRIF [VPS65 C-terminal 12 aa], for which the protein stability index under setting [1] was 0.756 ± 0.014 and the protein stability index (genetic background: wild type) came out at 0.641 ± 0.036.
For VMAWTFGYALIG [EMC6 C-terminal 12 aa] the same measures were 0.654 ± 0.015 and 0.452 ± 0.014.
Regarding VMKAKRKFNPYT [RRP7 C-terminal 12 aa], the protein stability index worked out at 0.6859 ± 0.0013 under setting [1] and 0.6974 ± 0.0025 (genetic background: wild type).
The sequence VMPIFIYFYTVV [CDC1 C-terminal 12 aa] had a protein stability index under setting [1] of 0.38 ± 0.044 and a protein stability index (genetic background: wild type) of 0.343 ± 0.0079.
For VNADDEIENNVD [AMN1 C-terminal 12 aa] the same measures were 0.674 ± 0.0091 and 0.669 ± 0.022.
As to VNGGSKKRKAND [RMI1 C-terminal 12 aa], the protein stability index under setting [1] was 0.664 ± 0.016 and the protein stability index (genetic background: wild type) was determined as 0.663 ± 0.0079.
In turn, VPEFLLHRRNSI [NTE1 C-terminal 12 aa] registered a protein stability index (genetic background: wild type) of 0.75 ± 0.05.
Consider VPEPGDQPLVQA [YPR078C C-terminal 12 aa], for which the protein stability index came to 0.725 ± 0.022 under setting [1] and 0.678 ± 0.023 (genetic background: wild type).
Regarding VPLKEELFPSSS [COX6 C-terminal 12 aa], the protein stability index under setting [1] stood at 0.718 ± 0.025 and the protein stability index (genetic background: wild type) was 0.674 ± 0.0019.
For VPVILREYKGSA [GCD2 C-terminal 12 aa] the same measures were 0.725 ± 0.017 and 0.665 ± 0.0075.

(Values after the supplement of paper PMC10724198.)
